Measurements published in patent US20120082622A1 (Janssen / Centocor, published 2012).

Biological target: T1, CCR4 endogenously expressed on CCRF-CEM cells (UniProt P51679 1-360, limits assumed)
T1 sequence (looked up): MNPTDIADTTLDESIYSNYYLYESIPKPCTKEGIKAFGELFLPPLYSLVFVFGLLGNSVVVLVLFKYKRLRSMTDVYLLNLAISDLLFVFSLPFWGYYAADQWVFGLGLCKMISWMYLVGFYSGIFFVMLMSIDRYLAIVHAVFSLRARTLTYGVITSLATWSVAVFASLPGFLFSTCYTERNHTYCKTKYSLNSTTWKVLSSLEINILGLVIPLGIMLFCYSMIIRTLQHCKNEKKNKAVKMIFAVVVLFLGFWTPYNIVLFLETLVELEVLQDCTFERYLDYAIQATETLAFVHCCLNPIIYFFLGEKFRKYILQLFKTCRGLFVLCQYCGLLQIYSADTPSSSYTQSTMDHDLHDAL
Test: cell-based or functional assay

B1: mature Macaca fascicularis CCL17 (cynoCCL17), refolded from E. coli inclusion bodies (ligand)
chain: ARGTNVGRECCLKYFKGAIPLRKLKTWYQTSEDCSRDAIVFVTVQNKAICSDPNDKKVKKALKYLQSL
- calcium flux of CCRF-CEM cells (Fluo-8 NW dye fluorescence), EC50: 0.665 ng/mL
